Reference: PMC7116892 (Science (New York, N.Y.), 2021)

B1: Lc8, ODA light chain (natural protein, Tetrahymena thermophila, UniProt W7XJB1 1-111, looked up)
chain: MSDSDSDEGRVVEEPLPPHIIRFNDMAQHLLKKVIRQADVLIKENPQGLEKDIALNLVKFVKSQPEFKIGDGEWQCIIGKNFGCSLTFDANVLAFFDLLPSRKSILLFKSG
B2: Lc8f (unnamed Lc8-like protein, UniProt ID Q22R86), ODA light chain (natural protein, Tetrahymena thermophila, UniProt Q22R86 1-111, looked up)
chain: MASNQQQKEDPKEQQQQYKTFMGARVLWPPECADDILEGAIRETQDALKKFEIAREGQKIAEHLKKYMDDHFDPYWHVFFGKNFGCQAVHNKNRFIYFYIEKTAFLMYQTQ
B3: Lc9, Tctex-like ODA light chain (natural protein, Tetrahymena thermophila, UniProt A4VEB3 1-117, looked up)
chain: MGDTDKEYISEEVQKAIDDSVKQVFGIKDDSSQVTITYNKDKVNLWTQQIIDYTIRGLNKLGKHFKYCVTAILQQTNHAGISVQITAYQDTNTDGSLIQCYEINDIYAIVSVFAMAV
B4: Lc7b, roadblock ODA light chain (natural protein, Tetrahymena thermophila, UniProt Q22MV2 1-159, looked up)
chain: MIYKTSKEIQKSDQRIIQQRVENSIINNQIYQKSLKRKTSKRKVRHQANKKNFQKEMSEVEDTLNRIKTHKTVLGYLIVNSEGGVVRGAFKDEEESKNIANSIPLLTKKARSVVRDLDPTNDLVFLRIQTKLNEIMVAPDDEFSLIVIQTKGEKRDEND

These binders were tested against T1, Dic2, ODA intermediate chain (Tetrahymena thermophila, UniProt I7M008 1-667) (assay: cryo-EM structure).
T1 sequence (looked up): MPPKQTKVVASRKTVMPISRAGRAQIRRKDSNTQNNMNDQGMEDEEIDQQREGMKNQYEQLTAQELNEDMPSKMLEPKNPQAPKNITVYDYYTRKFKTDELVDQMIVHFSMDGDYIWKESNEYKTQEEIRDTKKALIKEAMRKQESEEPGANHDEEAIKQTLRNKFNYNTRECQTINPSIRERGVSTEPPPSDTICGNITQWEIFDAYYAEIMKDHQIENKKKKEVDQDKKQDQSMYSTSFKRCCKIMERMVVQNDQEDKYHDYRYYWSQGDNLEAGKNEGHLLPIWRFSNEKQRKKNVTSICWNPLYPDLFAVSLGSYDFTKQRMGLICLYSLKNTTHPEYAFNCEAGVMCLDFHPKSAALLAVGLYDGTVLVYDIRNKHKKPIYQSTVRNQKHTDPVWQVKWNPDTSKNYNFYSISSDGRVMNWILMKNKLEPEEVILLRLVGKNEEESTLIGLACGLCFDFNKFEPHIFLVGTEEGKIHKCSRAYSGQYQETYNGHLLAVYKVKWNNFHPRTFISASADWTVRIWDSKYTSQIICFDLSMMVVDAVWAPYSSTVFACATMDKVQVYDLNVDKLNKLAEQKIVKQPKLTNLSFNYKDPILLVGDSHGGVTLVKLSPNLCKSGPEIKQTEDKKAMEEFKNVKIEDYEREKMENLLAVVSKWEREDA

Binder | binding result
B1 | binds
B2 | binds
B3 | binds
B4 | binds

These binders were tested against T2, Dic3, ODA intermediate chain (Tetrahymena thermophila, UniProt Q23FU1 1-670) (assay: cryo-EM structure).
T2 sequence (looked up): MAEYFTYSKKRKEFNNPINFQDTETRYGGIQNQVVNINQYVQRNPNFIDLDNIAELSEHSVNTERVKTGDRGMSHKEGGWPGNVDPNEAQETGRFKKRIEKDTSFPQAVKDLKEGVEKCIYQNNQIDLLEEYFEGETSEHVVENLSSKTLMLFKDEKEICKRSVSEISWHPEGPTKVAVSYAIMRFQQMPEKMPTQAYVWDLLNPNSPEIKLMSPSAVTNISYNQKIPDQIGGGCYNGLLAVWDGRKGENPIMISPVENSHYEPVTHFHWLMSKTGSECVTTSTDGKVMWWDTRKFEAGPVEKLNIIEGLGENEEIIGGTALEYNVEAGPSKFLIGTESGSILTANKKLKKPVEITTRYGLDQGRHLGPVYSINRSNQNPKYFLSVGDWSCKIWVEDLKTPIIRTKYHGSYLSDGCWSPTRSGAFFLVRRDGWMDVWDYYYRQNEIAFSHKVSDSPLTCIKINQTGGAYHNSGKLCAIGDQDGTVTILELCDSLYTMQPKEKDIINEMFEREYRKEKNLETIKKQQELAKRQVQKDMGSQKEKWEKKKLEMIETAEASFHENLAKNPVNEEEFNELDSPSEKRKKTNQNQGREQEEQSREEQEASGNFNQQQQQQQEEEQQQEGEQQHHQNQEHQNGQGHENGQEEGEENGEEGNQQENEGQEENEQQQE

Binder | binding result
B1 | binds
B2 | binds
B3 | binds
B4 | binds
